Literature values, collected in article PMC4131687.

Assays:
[1] = target: NaV1.4 (Rattus norvegicus) (UniProt P15390)
[2] = target: NaV1.2 (Rattus norvegicus) (UniProt P04775)
NaV1.2 (Rattus norvegicus), sequence (P04775 whole entry): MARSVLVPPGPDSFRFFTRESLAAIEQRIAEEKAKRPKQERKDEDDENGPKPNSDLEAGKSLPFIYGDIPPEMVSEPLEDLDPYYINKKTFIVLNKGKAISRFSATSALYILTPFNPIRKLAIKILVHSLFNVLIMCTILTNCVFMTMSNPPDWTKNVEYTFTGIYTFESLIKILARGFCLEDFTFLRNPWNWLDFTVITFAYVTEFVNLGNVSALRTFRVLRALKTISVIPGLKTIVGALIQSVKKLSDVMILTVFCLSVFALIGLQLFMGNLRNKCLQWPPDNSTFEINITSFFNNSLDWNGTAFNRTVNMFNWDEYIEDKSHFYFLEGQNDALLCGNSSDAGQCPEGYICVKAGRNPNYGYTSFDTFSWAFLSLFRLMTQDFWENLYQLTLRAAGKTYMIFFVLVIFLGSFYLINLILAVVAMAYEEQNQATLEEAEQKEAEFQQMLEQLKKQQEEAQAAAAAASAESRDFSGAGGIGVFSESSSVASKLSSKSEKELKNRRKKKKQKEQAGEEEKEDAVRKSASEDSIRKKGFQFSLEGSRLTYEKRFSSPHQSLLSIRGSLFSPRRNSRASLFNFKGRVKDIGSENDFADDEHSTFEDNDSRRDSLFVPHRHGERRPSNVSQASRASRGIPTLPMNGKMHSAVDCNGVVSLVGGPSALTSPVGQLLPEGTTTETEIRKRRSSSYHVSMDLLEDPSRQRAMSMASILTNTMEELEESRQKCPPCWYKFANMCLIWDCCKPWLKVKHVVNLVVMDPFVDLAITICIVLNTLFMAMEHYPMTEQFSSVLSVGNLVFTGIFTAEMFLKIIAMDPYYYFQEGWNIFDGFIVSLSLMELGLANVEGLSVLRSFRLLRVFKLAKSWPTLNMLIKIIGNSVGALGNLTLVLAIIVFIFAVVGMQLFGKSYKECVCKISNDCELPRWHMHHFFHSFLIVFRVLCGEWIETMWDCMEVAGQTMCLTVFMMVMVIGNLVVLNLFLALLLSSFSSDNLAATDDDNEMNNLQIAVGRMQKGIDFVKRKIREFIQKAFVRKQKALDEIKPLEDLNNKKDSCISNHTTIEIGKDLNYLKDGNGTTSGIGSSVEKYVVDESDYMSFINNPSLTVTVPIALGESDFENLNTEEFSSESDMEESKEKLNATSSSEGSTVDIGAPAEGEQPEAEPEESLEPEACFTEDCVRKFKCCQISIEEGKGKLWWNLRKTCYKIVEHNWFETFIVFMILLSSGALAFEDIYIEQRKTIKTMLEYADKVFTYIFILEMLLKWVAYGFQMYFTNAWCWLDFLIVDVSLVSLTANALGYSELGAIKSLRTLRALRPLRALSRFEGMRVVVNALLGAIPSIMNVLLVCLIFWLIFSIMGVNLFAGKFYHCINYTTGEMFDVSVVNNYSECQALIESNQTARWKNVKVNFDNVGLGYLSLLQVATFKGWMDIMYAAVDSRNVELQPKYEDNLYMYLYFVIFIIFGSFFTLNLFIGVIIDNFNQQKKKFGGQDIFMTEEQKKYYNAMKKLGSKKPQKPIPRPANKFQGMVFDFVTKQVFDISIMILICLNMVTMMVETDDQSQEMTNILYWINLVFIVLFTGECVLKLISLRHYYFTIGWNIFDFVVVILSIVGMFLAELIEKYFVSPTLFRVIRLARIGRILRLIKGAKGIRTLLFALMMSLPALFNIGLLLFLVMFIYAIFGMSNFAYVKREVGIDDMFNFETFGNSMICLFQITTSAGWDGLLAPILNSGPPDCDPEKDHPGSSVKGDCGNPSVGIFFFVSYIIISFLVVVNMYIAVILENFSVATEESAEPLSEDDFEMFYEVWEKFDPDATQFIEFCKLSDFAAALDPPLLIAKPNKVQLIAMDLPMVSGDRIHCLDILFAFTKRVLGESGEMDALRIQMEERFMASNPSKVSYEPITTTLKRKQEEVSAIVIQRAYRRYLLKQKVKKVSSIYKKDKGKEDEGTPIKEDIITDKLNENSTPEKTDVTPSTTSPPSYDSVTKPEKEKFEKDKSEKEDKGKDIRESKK

NaV1.4 (Rattus norvegicus), sequence (P15390 whole entry): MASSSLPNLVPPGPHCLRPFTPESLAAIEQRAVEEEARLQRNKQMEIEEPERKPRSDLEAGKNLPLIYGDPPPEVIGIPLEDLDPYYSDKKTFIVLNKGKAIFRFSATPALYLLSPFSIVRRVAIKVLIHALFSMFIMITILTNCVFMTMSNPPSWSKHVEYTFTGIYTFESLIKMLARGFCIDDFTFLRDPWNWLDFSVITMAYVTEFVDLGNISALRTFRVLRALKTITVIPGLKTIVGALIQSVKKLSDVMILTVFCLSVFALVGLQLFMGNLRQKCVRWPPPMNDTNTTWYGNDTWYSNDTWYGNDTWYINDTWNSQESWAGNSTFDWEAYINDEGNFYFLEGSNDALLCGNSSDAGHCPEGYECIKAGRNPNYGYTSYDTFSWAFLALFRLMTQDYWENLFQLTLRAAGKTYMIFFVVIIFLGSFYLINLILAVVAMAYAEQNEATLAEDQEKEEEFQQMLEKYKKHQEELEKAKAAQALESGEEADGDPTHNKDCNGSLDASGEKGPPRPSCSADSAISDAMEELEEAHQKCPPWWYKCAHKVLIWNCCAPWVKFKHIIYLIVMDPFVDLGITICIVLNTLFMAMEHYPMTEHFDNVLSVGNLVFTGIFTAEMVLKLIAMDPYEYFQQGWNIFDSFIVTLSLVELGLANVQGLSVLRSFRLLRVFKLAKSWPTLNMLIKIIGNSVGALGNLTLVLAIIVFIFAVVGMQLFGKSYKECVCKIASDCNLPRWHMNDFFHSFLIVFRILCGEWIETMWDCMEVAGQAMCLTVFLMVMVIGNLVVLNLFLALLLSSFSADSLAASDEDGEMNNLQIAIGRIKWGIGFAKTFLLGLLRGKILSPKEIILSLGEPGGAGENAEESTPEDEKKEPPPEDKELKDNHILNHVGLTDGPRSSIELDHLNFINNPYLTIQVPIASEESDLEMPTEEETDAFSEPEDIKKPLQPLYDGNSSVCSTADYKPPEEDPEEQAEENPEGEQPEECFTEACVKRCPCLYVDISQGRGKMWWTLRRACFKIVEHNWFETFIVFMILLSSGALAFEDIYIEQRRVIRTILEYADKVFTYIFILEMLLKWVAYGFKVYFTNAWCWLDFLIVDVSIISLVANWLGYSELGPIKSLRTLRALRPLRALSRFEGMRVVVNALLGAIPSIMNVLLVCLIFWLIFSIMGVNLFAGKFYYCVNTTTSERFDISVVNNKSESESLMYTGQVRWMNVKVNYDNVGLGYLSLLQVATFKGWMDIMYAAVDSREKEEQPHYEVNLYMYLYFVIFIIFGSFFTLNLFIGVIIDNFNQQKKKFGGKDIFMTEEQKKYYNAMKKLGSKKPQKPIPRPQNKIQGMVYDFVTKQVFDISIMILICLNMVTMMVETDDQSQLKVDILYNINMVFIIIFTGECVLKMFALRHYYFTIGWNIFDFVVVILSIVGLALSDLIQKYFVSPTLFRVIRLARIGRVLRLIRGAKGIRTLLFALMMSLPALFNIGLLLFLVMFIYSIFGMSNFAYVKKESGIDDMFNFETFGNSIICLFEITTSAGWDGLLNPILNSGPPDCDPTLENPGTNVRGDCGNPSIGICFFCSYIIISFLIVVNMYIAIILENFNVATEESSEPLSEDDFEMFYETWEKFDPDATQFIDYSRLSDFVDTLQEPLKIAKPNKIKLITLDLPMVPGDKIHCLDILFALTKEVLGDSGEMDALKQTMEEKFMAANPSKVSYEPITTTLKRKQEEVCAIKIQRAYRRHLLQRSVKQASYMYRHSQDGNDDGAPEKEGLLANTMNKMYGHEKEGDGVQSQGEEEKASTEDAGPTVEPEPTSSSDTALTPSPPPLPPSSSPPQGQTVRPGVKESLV

Substance | Kd [1] [nM] | Kd [2] [nM]
mu-conotoxin KIIIA (from UniProt P0C195) | 50 | 
μ-conotoxin KIIIA-P1 (from UniProt P0C195) |  | 5
